Assays:
U2AF1 S34F;U2AF2;SF1 = U2AF1 S34F;U2AF2;SF1 (Homo sapiens?;Homo sapiens?;Homo …, UniProt Q01081;P26368-2;Q15637 1-193;85-471;1-255, S34F||); test: fluorescence anisotropy; 20 nM 5'-fluorescein RNA, size-exclusion chromatography buffer (composition, pH and temperature not in the material), 384-well plate, 3 replicates; conditions: protein: recombinant;recombinant;recombinant; tags: ;;; copies: 1;1;1; label: 5' fluorescein
U2AF1 WT;U2AF2;SF1 = U2AF1 WT;U2AF2;SF1 (Homo sapiens?;Homo sapiens?;Homo …, UniProt Q01081;P26368-2;Q15637 1-193;85-471;1-255, ||); test: as above; conditions: protein: recombinant;recombinant;recombinant; tags: ;;; copies: 1;1;1; label: 5' fluorescein
Chain of U2AF1 WT;U2AF2;SF1 (Q01081 1-193, chain 1 of 3): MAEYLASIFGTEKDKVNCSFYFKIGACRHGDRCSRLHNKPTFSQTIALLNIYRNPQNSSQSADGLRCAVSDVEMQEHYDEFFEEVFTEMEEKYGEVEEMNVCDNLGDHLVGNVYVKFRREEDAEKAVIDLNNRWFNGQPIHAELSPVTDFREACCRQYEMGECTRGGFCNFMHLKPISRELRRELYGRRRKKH
Chain of U2AF1 WT;U2AF2;SF1 (P26368 other isoform, or with tags, fused parts or gaps ||, chain 2 of 3): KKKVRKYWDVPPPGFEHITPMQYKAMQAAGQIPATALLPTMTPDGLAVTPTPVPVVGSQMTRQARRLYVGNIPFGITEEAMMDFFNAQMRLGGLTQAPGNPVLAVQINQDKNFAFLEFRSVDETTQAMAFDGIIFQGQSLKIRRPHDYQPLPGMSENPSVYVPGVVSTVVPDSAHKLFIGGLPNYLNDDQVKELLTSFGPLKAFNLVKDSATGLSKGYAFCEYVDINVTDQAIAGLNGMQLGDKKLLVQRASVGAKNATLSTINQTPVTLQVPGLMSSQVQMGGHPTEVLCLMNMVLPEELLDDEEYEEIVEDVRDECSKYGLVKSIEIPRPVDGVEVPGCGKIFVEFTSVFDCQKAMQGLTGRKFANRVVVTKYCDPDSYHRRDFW
Chain of U2AF1 WT;U2AF2;SF1 (Q15637 1-255, chain 3 of 3): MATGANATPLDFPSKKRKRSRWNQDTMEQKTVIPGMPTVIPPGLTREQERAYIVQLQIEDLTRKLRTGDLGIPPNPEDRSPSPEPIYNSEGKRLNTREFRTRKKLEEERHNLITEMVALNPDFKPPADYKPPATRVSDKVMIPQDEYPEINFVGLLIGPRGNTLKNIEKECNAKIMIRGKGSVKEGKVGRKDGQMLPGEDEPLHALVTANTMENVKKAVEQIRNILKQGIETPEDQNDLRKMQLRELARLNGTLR

Chain of U2AF1 S34F;U2AF2;SF1 (Q01081 1-193 S34F, chain 1 of 3): as the sequence (Q01081 1-193, chain 1 of 3) above, with S34F counted along it
Chain of U2AF1 S34F;U2AF2;SF1 (P26368 other isoform, or with tags, fused parts or gaps S34F|| | S34F S34F, chain 2 of 3): as the sequence (P26368 other isoform, or with tags, fused parts or gaps ||, chain 2 of 3) above
Chain of U2AF1 S34F;U2AF2;SF1 (Q15637 1-255, chain 3 of 3): as the sequence (Q15637 1-255, chain 3 of 3) above

Row | Binder | Kd (U2AF1 S34F;U2AF2;SF1) | Kd (U2AF1 WT;U2AF2;SF1)
1 | GUAUAUAACUUUUAACUCUCGAUAGGAACUAAUUC (ssRNA) [FMR1 proximal 3' splice site] | 281 ± 44 nM | 188 ± 27 nM
2 | GUCUGUUGUCCCUCUGUCCUCAAAGAUGAUCAC (ssRNA) [MED15 proximal 3' splice site] | 483 ± 106 nM | 208 ± 35 nM
3 | CACUUGUCAUCAUUUUUGUUUCUAGAGUGUCCACA (ssRNA) [CEP164 distal 3' splice site] | 447 ± 63 nM | 497 ± 46 nM
4 | UUGGUUUUAUGUUUCUUCUUUUUAGGCCAAGAC (ssRNA) [ATR distal 3' splice site] | 49 ± 6 nM | 7 ± 0.5 nM
5 | GAAGCAUCAAAUGCUUCUGAAACAGAAUCUGACCA (ssRNA) [FMR1 distal 3' splice site] | 444 ± 58 nM | 427 ± 20 nM
6 | CAUUUCCUCCUUUUUGCAUUUUCAGGUGACUGU (ssRNA) [ZFAND1 distal 3' splice site] | 43 ± 7 nM | 53 ± 4 nM
7 | UUUUUCUCAUCUUUAACAGUCACAGUUGCAGAU (ssRNA) [FXR1 proximal 3' splice site] | 38 ± 6 nM | 71 ± 6 nM
8 | UAAACACUUGCUAUUAUUAUUUAAGCCUUGAAC (ssRNA) [ZFAND1 proximal 3' splice site] | 5 ± 1 nM | 24 ± 1 nM
9 | GCCGGCUGAGCCCCUCCACUUCCAGGUCAGCCA (ssRNA) [MED15 distal 3' splice site] | 32 ± 8 nM | 157 ± 25 nM
10 | UCUUCCAUAUCCACCUUUUCCUAAGAUGGCAAG (ssRNA) [ATR proximal 3' splice site] | – | 188 ± 52 nM
11 | UGAAAAAGUUGUCUCCCUUUGGCAGGCAAAAGA (ssRNA) [FXR1 distal 3' splice site] | 46 ± 11 nM | 41 ± 6 nM
12 | UUGACUGUCCUUCUCUAUUUUGAAGCCUUCACAGG (ssRNA) [CEP164 proximal 3' splice site] | 49 ± 9 nM | 12 ± 1 nM
